Measured values reported in the supplement of paper PMC9170038.

Legend:
MS2 coat protein [1] = assay: apparent KD of MS2 coat protein, switch ON state; designed switch direction (-1 OFF switch, 1 ON switch): 1; higher = weaker reporter binding; details: FMN input: 0 or 200 uM; Eterna round: R93 (includes R88 designs)
How it was run: (§1)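 Designed RNA switches were transcribed on-chip from Illumina sequencing clusters. They were then titrated with SNAP-549-labelled MS2 coat protein (twofold steps, 0.7 or 1.5 nM to 3 µM; 0.8–1.5 h to 10–20 min per step) in 100 mM Tris-HCl pH 7.5, 80 mM KCl, 4 mM MgCl2, without or with constant ligand. Apparent KD is the per-design median of normalised cluster binding-curve fits.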

MS2 coat protein [2] = assay: apparent KD of MS2 coat protein, switch OFF state (with FMN for OFF switches, without FMN for ON switches); designed switch direction (-1 OFF switch, 1 ON switch): 1; higher = weaker reporter binding; details: FMN input: 0 or 200 uM; Eterna round: R93 (includes R88 designs)
How it was run: as §1

Sequence	apparent KD of MS2 coat protein (MS2 coat protein [1])	apparent KD of MS2 coat protein (MS2 coat protein [2])
CGGAGACAUGAGGAUCACCCAUGUGAGAAGAGGCGAGGAUAUCGAAAAAAAAAAAAAAAACGAGAAGGCGCGAGAU [salish99-SS1-013]	34 nM	36.2 nM
CGGAGACAUGAGGAUCACCCAUGUGAGAAGAGGCGAGGAUAUCGAAAGAAAGAAGAGAAACGAGAAGGCGCGAGAA [salish99-SS1-065]	20.4 nM	32.8 nM
CGGAGACAUGAGGAUCACCCAUGUGAGAAGAGGCGAGGAUAUCGAAAGAAAGAAGAGAAAUGAGAAGGCGCGAGCC [salish99-SS1-081]	36.2 nM	39 nM
CGUAAACAUGAGGAUCACCCAUGUCAAUAUGAUCAAGGAUAUGGGUUCCGAAGUGGAACACCAGAAGGUGAAUAGU [Inrea]	377 nM	580 nM
CGUGAACAUGAGGAUCACCCAUGUGAAAAACAUAGAGGAUAUGUCGCGUGAGUGCAAAAGACAGAAGGCUAUCGUG [Mod 4 of Round 1 starryjess' Mod pf Nando]	19.9 nM	35.1 nM
GAAAAACAUGAGGAUCACCCAUGUAAAAAUAUGGGAGGAUAUACAAAGACGAAAGUCAAAGUAGAAGGCCUAAAAG [77%, Mat - Mod of Eli, 3]	24.4 nM	59.7 nM
GAAAAACAUGAGGAUCACCCAUGUAAGAUAAACACAGGAUAUGCGAAAAUAAAUAAAUAAGCAGAAGGGUGAAAAG [Mat - Same State 1 - Tesla mod - 78]	25.7 nM	37.4 nM
GAAAAACAUGAGGAUCACCCAUGUAGAAAUAUGGGAGGAUAUACAAAGACGAAAGUCAAAGUAGAAGGCCUAUAAG [Starry Same State 1.5 (mat747 round 1 mod)]	17.7 nM	33.3 nM
GAAAAACAUGAGGAUCACCCAUGUAGAAAUAUGGGAGGAUAUACAAAGACGAGAGUCAAAGUAGAAGGCCUAAAAG [Mat - Same State 1 - Eli mod - D9]	28.4 nM	86.7 nM
GAAAAACAUGAGGAUCACCCAUGUGAGAAUAUGGAAGGAUAUACAAAGACGAAAGUCAAAGUAGAAGGUCUAAAAG [Mat - Same State 1 - Eli mod - D15]	28.9 nM	20.5 nM
GAAAAACAUGAGGAUCACCCAUGUGUAAACAAGGGAGGAUAUACAAAGACGUAAGUCAAAGUAGAAGGCCUAAAAG [Garnet 38]	25.6 nM	47.1 nM
GAAAAACAUGAGGAUCACCCAUGUGUAAAUAUGGGAGGAUAUACAAAGACGGAAGUCAAAGUAGAAGGCCUAAAAG [Mat - Same State 1 - Eli mod - D11]	94.3 nM	111 nM
GACAAACAUGAGGAUCACCCAUGUAGACAUAUGGGAGGAUAUACACAGACGAAAGUCAAAGUAGAAGGCCUACAAG [77%, Mat - Mod of Eli - With 4 more C's]	29.3 nM	91.3 nM
GACAAACAUGAGGAUCACCCAUGUAGACAUAUGGGAGGAUAUACACAGACGAAAGUCACAGUAGAAGGCCUACAAG [77%, Mat - Mod of Eli - With 5 more C's]	26.9 nM	82.4 nM
GACAGACAUGAGGAUCACCCAUGUACAAACGUACAAGGAUAUGUGUGGAAACCGUACUAUACAGAAGGUGUAUGUC [SS1 - 91]	42 nM	80.5 nM
GACUGACAUGAGGAUCACCCAUGUAUUCAAACAUGAGGAUAUAUAACACGUCAUCGACGGAUAGAAGGCAUAGAUG [JR_SS001_Sub1209]	117 nM	162 nM
GACUGACAUGAGGAUCACCCAUGUAUUCGAGCAUGAGGAUAUAUGACACGUCAUCGACGGAUAGAAGGCAUGGAUG [JR_SS001_Sub1211]	232 nM	208 nM
GAGGACAUAGGAUAGGAUAUAUGAAUAAUUACAUGAGGAUCACCCAUGUCCAUUUAUAUGGGAACAUAGAAGGGUUGUAGUUAUC [SameState2 Malc#34]	1070 nM	683 nM
GCCUAACAUGAGGAUCACCCAUGUAGUGGGUUGUUAGGAUAUGGACCACAAAACGCGGUACCAGAAGGAAUAGAAA [Atbima]	393 nM	538 nM
GCCUAACAUGAGGAUCACCCAUGUAGUGGGUUGUUAGGAUAUGGACCGCAAAACACGGUACCAGAAGGAAUAGAAA [Tiquleraat]	448 nM	720 nM
GGAAAACAUGAGGAUCACCCAUGUUAGUGUCAUUAAGGAUAUGGGCUUAAGAAUUUGAGACUAGAAGGUGAUGCGC [Soisla]	21.8 nM	49.2 nM
GGAGCCGGCACCGAGGAUAUUCAUAUUAAAACAUGAGGAUCACCCAUGUAGGCCAGAAGGCCUUGGGAGAAGGCGGAUCGGCUCG [Xeonanis]	29.9 nM	481 nM

Sequence	apparent KD of MS2 coat protein (MS2 coat protein [1])	apparent KD of MS2 coat protein (MS2 coat protein [2])
GGAGCCGGUACUGAGGAUAUUCAUAUUAAAACAUGAGGAUCACCCAUGUAGGCCAGAAAGCCUUGGGAGAAGGCAGAUCGGCUCG [Bienuslete]	17.8 nM	126 nM
GGAGCCGGUACUGAGGAUAUUCAUAUUAAAACAUGAGGAUCACCCAUGUAGGCCAGAAGGCCUUGGGAGAAGGCAGAUCGGCUCC [Biceusra]	20.4 nM	266 nM
GGGAGACAUGAGGAUCACCCAUGUGAGAAGAGGCGAGGAUAUCGAAAGAAAGAAGAGAAACGAGAAGGCGCGAGAA [salish99-SS1-049]	37 nM	64.4 nM
GGGAGACAUGAGGAUCACCCAUGUGAGAAGAGGCGAGGAUAUCGAAAGAAAGAAGAGAAACGAGAAGGCGCGAGAU [salish99-SS1-053]	30.3 nM	67 nM
GUCCAACAUGAGGAUCACCCAUGUGCAUGACACUGAGGAUAUGGGACUAAAGGUGCUGGACCAGAAGGCAGAAGAA [Diatquorbi]	48.3 nM	94.9 nM
GUGGCGCAGGUACAGGAUAUGUUUCUCGUAACAUGAGGAUCACCCAUGUACCUAUGAGAUUAAAUGCAGAAGGGUGCACGCCACG [Inedor]	41.1 nM	154 nM
GUGGUGCAGGUACAGGAUAUGUUGCUCGUAACAUGAGGAUCACCCAUGUACCUAUGAGAUUAAAUGCAGAAGGGUGCACACCACG [Edtiditele]	28.4 nM	208 nM
UAAAAACAUGAGGAUCACCCAUGUGAAAAUAUGGGAGGAUAUACAAAGACGAGAGUCAAAGUAGAAGGCCUAAAAU [Mat - Same State 1 - Eli mod - D88]	15.7 nM	115 nM
UAAAAUAAAACAUAGGAUAUCAAAAUAAAAACAUGAGGAUCACCCAUGUGAAAACAUGAGAAGGAUGAGAAGGAAAAUAAAAUAA [Meechl SS2 R2 m1]	25.7 nM	51.6 nM
UAACAACAUGAGGAUCACCCAUGUCAAACAAAUCGAGGAUAUGGGCAGGAUUCUUCCUAUCUAGAAGGCGAAAACA [Ricexebi]	145 nM	83.2 nM
UAAGACGUGCAUCAGGAUAUGUUCCGAGGCACAUGAGGAUCACCCAUGUGGACGAAGCCUCGGGCACAGAAGGGAUCACUCAGAC [Laarma]	17.2 nM	20.4 nM
UAGAGACAUGAGGAUCACCCAUGUAGGAUUAUGGGAGGAUAUACAAAGACGAGAGUCAGAGUAGAAGGCCUAGGAA [salish99-ss1-133(!)]	24.9 nM	74.6 nM
UAGAGACAUGAGGAUCACCCAUGUAGGAUUAUGGGAGGAUAUACAAAGACGAGAGUCAGAGUAGAAGGCCUAGGAG [salish99-ss1-135(!)]	22 nM	64.9 nM
UAUAAACAUGAGGAUCACCCAUGUAGAAAUAUGGGAGGAUAUACAAAGACGAAAGUCAAAGUAGAAGGCCUAAUAU [Mat - Same State 1 - Mod - D155]	18.9 nM	55.3 nM
UCAAAACAUGAGGAUCACCCAUGUAGCCUAAAGCGAGGAUAUGGGUUUCUUUAAAGAGUACCAGAAGGCGCCAAAA [Enenala]	27.9 nM	91.1 nM
UCAAAACAUGAGGAUCACCCAUGUAGUCUAAAGCGAGGAUAUGGGUUUCUUUAAAGAGUACCAGAAGGCGCCAAAA [Entibi]	23.3 nM	60.9 nM
UCAGAACCGACAAAGGAUAUAGCGGGUGAGACAUGAGGAUCACCCAUGUAUGCAGAACUCAUCCUCUAGAAGGUUGAGACGGAUA [Maedanon]	213 nM	93.6 nM
UCCACCAUGGUACAGGAUAUGUCAGACCCGACAUGAGGAUCACCCAUGUGCGGUUCUUUUCCAACGCAGAAGGGUGCAUAGGUGG [Xevetia]	17.1 nM	43.9 nM
UGGAAGGAGAGAGAGGAUAUCCAAAGGAAAACAUGAGGAUCACCCAUGUAGAAGGUAGGAAAUUGGGAGAAGGCUCAAGAGAGAG [salish99-ss2-117]	17 nM	27.5 nM
UGGAGACAUGAGGAUCACCCAUGUGAGAAGAGGCGAGGAUAUCGAAAGAAAGAAGAGAAACGAGAAGGCGCGAGCA [salish99-SS1-040]	25.9 nM	40.2 nM
UGUUCGAGUAGUGAGGAUAUUCAUGGGCCCACAUGAGGAUCACCCAUGUAAUGGACCGGGCCGAAGGAGAAGGCGCGUAAAAUUA [Atceve]	38.2 nM	140 nM
UUCUCCACUAGCAAGGAUAUCUAAAACUAAACAUGAGGAUCACCCAUGUGACGACCACACGUAUCAGAGAAGGUGCAGGGUGUAU [JR_SS002_Sub308]	45.4 nM	42.5 nM
